According to paper doi:10.1101/2022.03.10.483744 (bioRxiv, 2022):
Numbering of substitutions follows the chain as printed. Numbers in names are those of the source. Where “and” joins values, the source holds several entries; their conditions need not be identical. Identical values can stand only once.

Assays:
[1] = molecular target: CLPB^isoform1 (human); assay: cryo-EM 2D classification
[2] = molecular target: CLPB-NBD^E425Q (human) (UniProt Q9H078); assay: cryo-EM structure
[3] = molecular target: CLPB-NBD (NBD-only variant, N-terminal ANK domain truncated) (human) (UniProt Q9H078); assay: cryo-EM 2D classification
[4] = molecular target: the molecule itself; assay: cryo-EM structure
[5] = molecular target: the molecule itself; assay: SEC + other: negative-staining EM
[6] = molecular target: the molecule itself; assay: SEC

Molecule: CLPB^isoform1 (natural protein)
- stoichiometry N [1]: 14

Molecule: CLPB-NBD^E425Q (from UniProt Q9H078-2 1-677) (domain or fragment)
- stoichiometry N [2]: 6 and 7 and 9

Molecule: CLPB-NBD (NBD-only variant, N-terminal ANK domain truncated) (from UniProt Q9H078-2 1-677) (domain or fragment)
- stoichiometry N [3]: 6 and 7

B1: CLPB-N127 (human CLPB isoform 2 starting from the PARL cleavage site) (natural protein)
chain: YSKSPSNKDAALLEAARANNMQEVSRLLSEGADVNAKHRLGWTALMVAAINRNNSVVQVLLAAGADPNLGDDFSSVYKTAKEQGIHSLEVLITREDDFNNRLNNRASFKGCTALHYAVLADDYRTVKELLDGGANPLQRNEMGHTPLDYAREGEVMKLLRTSEAKYQEKQRKREAEERRRFPLEQRLKEHIIGQESAIATVGAAIRRKENGWYDEEHPLVFLFLGSSGIGKTELAKQTAKYMHKDAKKGFIRLDMSEFQERHEVAKFIGSPPGYVGHEEGGQLTKKLKQCPNAVVLFDEVDKAHPDVLTIMLQLFDEGRLTDGKGKTIDCKDAIFIMTSNVASDEIAQHALQLRQEALEMSRNRIAENLGDVQISDKITISKNFKENVIRPILKAHFRRDEFLGRINEIVYFLPFCHSELIQLVNKELNFWAKRAKQRHNITLLWDREVADVLVDGYNVHYGARSIKHEVERRVVNQLAAAYEQDLLPGGCTLRITVEDSDKQLLKSPELPSPQAEKRLPKLRLEIIDKDSKTRRLDIRAPLHPEKVCNTI
- stoichiometry N [4]: 14

B2: CLPB^R178E (natural protein)
chain: B1 chain with R52E
- binding result [5]: binds

B3: CLPB^R227E (natural protein)
chain: B1 chain with R101E
- binding result [5]: binds

B4: CLPB^E425Q (Walker B mutant of CLPB-N127) (natural protein)
chain: B1 chain with E299Q
- stoichiometry N [4]: 12

B5: CLPB^Δ201-232 (natural protein)
chain: YSKSPSNKDAALLEAARANNMQEVSRLLSEGADVNAKHRLGWTALMVAAINRNNSVVQVLLAAGADPNLGDDFSSFKGCTALHYAVLADDYRTVKELLDGGANPLQRNEMGHTPLDYAREGEVMKLLRTSEAKYQEKQRKREAEERRRFPLEQRLKEHIIGQESAIATVGAAIRRKENGWYDEEHPLVFLFLGSSGIGKTELAKQTAKYMHKDAKKGFIRLDMSEFQERHEVAKFIGSPPGYVGHEEGGQLTKKLKQCPNAVVLFDEVDKAHPDVLTIMLQLFDEGRLTDGKGKTIDCKDAIFIMTSNVASDEIAQHALQLRQEALEMSRNRIAENLGDVQISDKITISKNFKENVIRPILKAHFRRDEFLGRINEIVYFLPFCHSELIQLVNKELNFWAKRAKQRHNITLLWDREVADVLVDGYNVHYGARSIKHEVERRVVNQLAAAYEQDLLPGGCTLRITVEDSDKQLLKSPELPSPQAEKRLPKLRLEIIDKDSKTRRLDIRAPLHPEKVCNTI
- binding result [6]: binds
